Assay results published in the supplement of paper PMC12636428.

System: Saccharomyces cerevisiae
Test: transcriptional activation domain activity (GFP:mCherry ratio, weighted mean of sorted bins, harmonized to initial dataset scale) (arbitrary fluorescence ratio units); higher = stronger transcriptional activation
Conditions: beta-estradiol 1 µM; induction time 4 h
Method in brief: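 For this assay, yeast diploids with a GFP reporter carried barcoded protein tiles at URA3, each fused to an estradiol-inducible synthetic transcription factor. Induction was a 1:5 dilution into SC with 1 uM beta-estradiol for 4 hours at 30 °C, followed by sorting into 8 bins by GFP:mCherry ratio and barcode sequencing. Tiles under 50 reads were dropped, and activation activity was calculated as the read-weighted mean of bin median fluorescence, averaged across barcodes and linearly mapped onto the initial dataset scale.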

Sequence	transcriptional activation domain activity
MGVCGVFISFLAWGGCLVLLNVRLHLRGLIFSLSNLFYDTVHVTCIWFFLFRL	65300
LMFLVLIVSNLRLMIENFRKYGVLICIRCHDYRRQDVVYGSILYFLVPCHLFV	73100
FLSYFSGWLTVIAWQCLVASASYVSGTLLQGLLVLNYPTYVFERWQGTLLMYA	57900
LEGGRVIQRGRHNVATDVVGCFYDAFCTLLPQMIIVRVTRGKAWDSRVIYPTE	66400
MIYLASFLLLTVDSSIWSVPITIFIPYTIYLFPPHTYICVLFARILIFHLLSF	61200
MFSYFVFLLTIVTFFHLIISFCFVFRCHYIVLLLLLQNVFIFCLFAHHCYIHV	31400
ETKGASGEGGKSTSESGSASSSSSKGEGKAAGEQGSSGSSSGSSSESGSKEKT	30100
MVSFFFSLCFSSFSYLLFPHFLSFFLFFSLCCHFFPFVSTFPPILFFIMNVSF	67100
MAGDDEEGRDADGEPDNAATPAKRQRVSRACDQCRAARERCDGKPQCHPCVSQ	34100
MFSWLYLSYFQPLWRAFISLFIFLRTLHQSSPSIFFISIILLFICFPLAMFAV	19200
IRGKTLPKYFPRFHMWGHIDADIQLMSKGLITPVCIEMVYGMHPFVVYKLFMF	62100
KFQERMMVLKEIKLISLGDVRKITYSRMGYTDWKIVVLGRMWNLRFFVATGWD	64400
LIHVVNLAQVLAVLIHRTVYGLLPIFEVMSCAIFPFLVSMWHIAFLLMYTVML	45700
LQSSLLHPCAFYVRLLISILIEYISLPCLTIDFFFFFIFRVTFPIFFLTFFYL	61400
FEAKHADLIGSQKALYFQSTENIKNLLSMFTSYFSPIVDLLGHLHRVLTQVYH	46600
GAAAASGTKPKPTAAGGAAGAAAASGAKPKPTAAGAAGAAAASGAKPKPTGAA	15300
ANEEAEPEHPEPAAEANDSTGREGRGRGKRGRDRGRGRGRGRGGRSGRGGASG	27600

Sequence	transcriptional activation domain activity
KPESKEKEEEEEETETETETETKPEAKEEPKEEPKEEVNNEKEAEDAAAAEAK	27200
YIAPCGTWTPYMNLFLGSTVCIFIGFDVFAPFSYRGLITNYFGLLWFCFMFLF	78400
MYHSIQLGPVVSLLSLALSFIFFFLSPFFFFPFLALSFAPLFVILIFFFISTC	29000
TSTKKTTTTKKATSTKSATATSSCTKYTVKKGDTCSSIASKVGGTTAAKIISK	34000
QESVYIEVISYIGLIFDWFWYYILMNLSVFIWLACMYYTIFLYGFLEAYFPEK	33000
MISFFNWQVWGGFCGLLFIFFLFDFFLLEFGSTYHLLEDGLNLFLFWYFYDYD	43600
MYCMRYFAPLFLLPFPDAPPFFVVLSLISFFLHQKPCIYCVFLLLALFSSTCY	61400
SHTAEPSDADGEGTRATRRAKTKSKSTGKSREAGKRSNGARKGGGRADSGGKD	46800
HISCLIISVFLCELMVHIPLSTLFYVGLYFPVHFISTPGYFYFIYCILFQLFL	47300
MLHAGVSNKIAKGWPKEGSCDRASFVHEGVLMMCQRSLVTFIVRSLLLMCYYF	36800
GDKNKRKRGDSAASEAQAGQQEAAKEVQQKKKRVRSKGKAAAPPVAQASAGAS	45300
AKANGAAKAAAVKPKDDSSDSSDSDSESDEEKAPAKAKEAKKAEVCTCCLSTV	17500
LHNRFGAFTPSKTPKSVFVVTYLGRVFITIMFCLVVVIAALTIKYSADSNNLY	9590
LGIRSILETAYRINRLTHMCLQHLLTRCNNLEPLELVGSVLFFLDKKLKRPPE	50300
MTEPMLFFVLYFIRLLPFSFIFFHFLSFSLSILFFVILFSSSFHPFSSSFFFI	53400
KGFDSQCIEEWDPILFSAAEIWPTKGKPIALVEMDPIDFDFDVDNWDYVTRHL	174000
MNLDTSPDFVHFFLGFTGGVSILDLYCLFMYTFFDMIQLQLNPFSDFFFPFSL	62100
